Our source for the CDC EC50 (Jeko-1 cells, rabbit complement), EC50 of ADCC assay Using Primary NK Cells and EC50 values is US11814439.

By EC50 is commonly meant the concentration that produces a half-maximal response.

Test [1] concerns the target C1q Receptor in the complement system (rabbit serum as the source of complement) (rabbit). Nature of the test: cell-based or functional assay.
For test [2], the target named is FcγIIIA Receptor on the effector cells (CD16 / FcγRIII) (human) (UniProt P08637). Put plainly: cell-based or functional assay.
FcγIIIA Receptor on the effector cells (CD16 / FcγRIII) (human), sequence (P08637 17-254): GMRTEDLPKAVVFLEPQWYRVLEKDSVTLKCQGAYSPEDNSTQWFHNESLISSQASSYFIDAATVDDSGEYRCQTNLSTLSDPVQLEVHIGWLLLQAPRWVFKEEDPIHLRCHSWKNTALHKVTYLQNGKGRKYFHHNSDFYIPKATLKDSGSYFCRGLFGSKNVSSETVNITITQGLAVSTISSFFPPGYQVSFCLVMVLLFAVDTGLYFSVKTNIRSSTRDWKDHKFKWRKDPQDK
Test [3] addresses CD20 on Jeko-1, Raji and Daudi cells (human) (UniProt P11836). Nature of the test: FACS on Raji cells, PE anti-human secondary antibody.
The target is the same in test [4]. Nature of the test: FACS on Daudi cells, PE anti-human secondary antibody.

CD20 on Jeko-1, Raji and Daudi cells (human), sequence (P11836 whole entry): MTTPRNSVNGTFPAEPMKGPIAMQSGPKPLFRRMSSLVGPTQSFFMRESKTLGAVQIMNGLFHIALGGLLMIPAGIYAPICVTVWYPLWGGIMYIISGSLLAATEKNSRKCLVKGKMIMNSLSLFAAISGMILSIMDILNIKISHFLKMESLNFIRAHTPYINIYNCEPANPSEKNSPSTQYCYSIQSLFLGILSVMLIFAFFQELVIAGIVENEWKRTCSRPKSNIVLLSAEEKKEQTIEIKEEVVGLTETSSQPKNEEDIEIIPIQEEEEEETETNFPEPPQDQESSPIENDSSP

As for ARZERRA (ofatumumab) (antibody), in test [1], the CDC EC50 (Jeko-1 cells, rabbit complement) came to 0.353 µg/mL. The EC50 of ADCC assay Using Primary NK Cells in test [2] came out at 500 µg/mL. For the same substance, the EC50 was 0.00873 ng/mL in test [3] and 0.000793 ng/mL in test [4].

In test [2], GAZYVA (obinutuzumab) (antibody) yielded an EC50 of ADCC assay Using Primary NK Cells of 19 µg/mL.

Turning to OCREVUS (ocrelizumab) (antibody), in test [1], the CDC EC50 (Jeko-1 cells, rabbit complement) amounted to 1.21 µg/mL.

In the case of RITUXAN (rituximab) (antibody), the CDC EC50 (Jeko-1 cells, rabbit complement) in test [1] is 0.245 µg/mL. In test [2], this substance showed an EC50 of ADCC assay Using Primary NK Cells of 1390 µg/mL.
